In US20120165265A1, “Calcium Signaling Modulators Involving STIM and ORAI Proteins” (priority 2009, published 2012):
“Also recorded” adds a separate entry of the source.

Tests used:
Format in all cases: cell-based
[1] = molecular target: T1, Orai1-ΔN, Orai1-ΔC, Orai1-ΔN73 (Homo sapiens, UniProt Q96D31); assay: Whole-cell recording of ICRAC with truncated Orai1 and CAD; details: cells expressing Orai1-ΔN73
T1 construct: expressed in transfected cells; host or cells: HEK 293
Experimental: Electrophysiology. HEK 293 cells were transfected 8-24 h prior to electrophysiology experiments with STIM1- and Orai1-derived constructs in a 1:1 mass ratio using Lipofectamine 2000. […] ICRAC in cells cultured without LaCl3 was similar to that in cells cultured with LaCl3, but most cells without LaCl3 died soon after break-in.
Currents were recorded using standard whole-cell patch clamp techniques (Prakriya and Lewis, 2001). Pipettes of resistance 2-5 MΩ were filled with an internal solution containing (in mM) 150 Cs aspartate, 8 MgCl2, 10 EGTA, and 10 HEPES (pH 7.2 with CsOH). Currents were sampled at 5 kHz and filtered at 2 kHz, and all voltages were corrected for the junction potential of the pipette solution relative to Ringer's in the bath (−13 mV).
Patch-clamp Experiments. Pipette-membrane seals were formed in 2 mM Ca^2+ Ringer's solution. After break-in to the whole-cell configuration, voltage stimuli consisting of a 100-ms step to −100 mV followed by a 100-ms ramp from −100 to +100 mV were delivered every 5 s from the holding potential of +30 mV. After the currents reached a steady level (˜300 s for wild-type STIM1), the external solution was changed via a multibarrel local perfusion pipette to a high-Ca^2+ Ringer's containing (in mM) 130 NaCl, 4.5 KCl, 20 CaCl2, 1 MgCl2, 10 D-glucose, and 5 HEPES (pH 7.4 with NaOH). […]

GFP-Orai1 = molecular target: T2, GFP-Orai1 (Homo sapiens, UniProt Q96D31); assay: Fluorescence recovery after photobleaching (FRAP) of GFP-Orai1
T2 construct: expressed in transfected cells
Experimental: Fluorescence Recovery After Photobleaching (FRAP). Inducible HEK 293 cells were transiently transfected with mCh-CAD and maintained with 10 μM LaCl3 to suppress chronic Ca2+ entry. After 15-16 h, eGFP-myc-Orai1 expression was induced with 1 μg/ml tetracycline in medium containing LaCl3. Cells were rinsed with 2 mM Ca2+ Ringer's solution at 24 h post-transfection prior to imaging on the confocal system described above. Prebleach and recovery images were scanned at 488 nm at low power (20 mW Ar laser, 50% power, 6% transmission). A 3-μm strip was bleached at 50% laser power with full transmission for ˜2 s. Bleaching during the recovery period was negligible (<5%). FRAP recovery curves were analyzed with ImageJ (W. S. Rasband, NIH, Bethesda, Md., following a published method in which an empirical formula approximating the one-dimensional solution of the diffusion equation is fitted to the time course of fluorescence recovery within the bleached ROI. An offset was introduced to account for incomplete bleaching. The
where I(t) is the mean intensity within the bleached region at time t, Ib is the intensity immediately after bleaching, If is the intensity after full recovery, w is the width of the bleached region, and D is the effective diffusion coefficient, was fit to the FRAP recovery curves with Igor Pro 5.0 (Wavemetrics) to determine D. Mobility was determined as (If−Ib)/(I0−Ib), where If and Ib are defined as above, and I0 is the initial intensity within the ROI after correction for the loss of whole-cell fluorescence by the bleaching pulse (˜10%).
To test whether CAD also clusters CRAC channels in intact cells, we conducted fluorescence recovery after photobleaching (FRAP) experiments of GFP-Orai1 expressed alone or with CAD in HEK 293 cells. […] In cells co-expressing GFP-Orai1 and CAD, the mobile fraction was unchanged (87±4%) but Orai1 diffusion was slowed by a factor of two (D=0.036±0.006 μm^2/s, n=6).

CRAC channels = molecular target: T3, CRAC channels (Homo sapiens, UniProt Q96D31); assay: [Ca2+]i imaging in HEK 293 cells expressing STIM1 fragment and Orai1; details: HEK 293 cells coexpressing construct and Orai1, no store depletion
T3 construct: expressed in transfected cells; host or cells: HEK 293
Experimental: Ca^2+ Imaging. For FIG. 2, cells were loaded at 37° C. in DMEM with 1 μM fura-2/AM for 30 min. Ratiometric Ca2+ imaging was performed at 340 and 380 nm in 2 mM Ca2+ Ringer's solution with a Nikon Eclipse 2000-U inverted microscope equipped with a fluorescent arc lamp, excitation filter wheel, and a Hamamatsu Orca CCD camera. Images were collected using Openlab (Improvision) and analyzed using Igor Pro.
To determine if CAD activates store operated Ca^2+ influx in cells, we measured [Ca^2+]i in HEK 293 cells expressing CAD and Orai1.

endogenous CRAC channels = assay: NFAT-luciferase assay in HEK 293T (NFAT-Luc) cells; details: HEK 293T NFAT-luc cells transfected with STIM1 construct; PMA (1 μM) alone; listed as D5
Experimental: NFAT-luciferase Assays. HEK 293T cells were co-transfected with the indicated constructs and an NFAT reporter gene (firefly luciferase gene C-terminal to 4×-NFAT site from the IL-2 gene). Cotransfection with the Renilla luciferase (pRLTK) gene driven by the TK promoter was used to control for cell number and transfection efficiency. After 12-18 h, cells were treated with a control DMSO solution (mock), PMA (1 μM), or PMA plus TG (1 μM) for 8 h. Assays were performed using the Dual Luciferase Reporter assay system (Promega). For each condition, luciferase activity was measured with 4 samples taken from duplicate wells using a 96-well automated luminometer (Turner Biosystems). Results are represented as the ratio of firefly to Renilla luciferase activity.
Identifying a Minimal Cytosolic Region of STIM1 that Opens the CRAC Channel. To identify the CRAC-activating domain of STIM1, we first tested a series of soluble cytosolic STIM1 fragments for their ability to activate an NFAT-dependent luciferase reporter gene (NFAT-luc). A series of constructs were generated by progressive truncation of the full-length cytosolic region of STIM1 (FIG. 2A; STIM1234-685; CT-STIM1) and were transiently expressed in a HEK 293T cell line containing NFAT-luc. […]

T2 sequence (Q96D31 whole entry): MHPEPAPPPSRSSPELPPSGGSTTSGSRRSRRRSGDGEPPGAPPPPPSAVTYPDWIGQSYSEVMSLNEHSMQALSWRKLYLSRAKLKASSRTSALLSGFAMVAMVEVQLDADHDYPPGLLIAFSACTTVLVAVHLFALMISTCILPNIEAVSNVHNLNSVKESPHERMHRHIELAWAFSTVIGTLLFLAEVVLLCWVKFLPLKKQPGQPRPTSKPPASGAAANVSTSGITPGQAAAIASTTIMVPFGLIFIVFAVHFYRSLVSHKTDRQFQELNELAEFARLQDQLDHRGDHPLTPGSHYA
T3 sequence (Q96D31 whole entry, the tested form may be a part): as the sequence (Q96D31 whole entry) above
T1 sequence (Q96D31 74-301): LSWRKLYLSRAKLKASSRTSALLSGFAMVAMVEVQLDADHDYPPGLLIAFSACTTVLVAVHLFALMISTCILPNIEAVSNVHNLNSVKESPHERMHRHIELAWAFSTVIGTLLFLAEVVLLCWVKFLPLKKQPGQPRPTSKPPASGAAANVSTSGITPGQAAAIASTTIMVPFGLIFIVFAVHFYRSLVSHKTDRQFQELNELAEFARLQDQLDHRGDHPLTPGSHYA

CAD: 107-residue CRAC activation domain within the C-terminus of STIM1 (aa 342-448), SEQ ID NO:1
constitutive ICRAC activation [1]: constitutively activated ICRAC | mobile fraction of GFP-Orai1 (GFP-Orai1; HEK 293 cells co-expressing GFP-Orai1 and CAD): 87±4% | effective diffusion coefficient (D) of GFP-Orai1, mean (GFP-Orai1; HEK 293 cells co-expressing GFP-Orai1 and CAD, n=6): 0.036±0.006 μm^2/s | diffusion coefficient of eGFP-Orai1, single-cell fit (GFP-Orai1; single cell expressing eGFP-Orai1 with CAD (FIG. 6D)): 0.026 μm^2/s | [Ca2+]i / CRAC channel activation (CRAC channels): sustained [Ca^2+]i elevation | activation of NFAT-dependent luciferase reporter gene (NFAT-luc) (endogenous CRAC channels): active; also recorded: necessary and sufficient to activate NFAT
